From patent publication US20240247058A1 (published 2024)

How the values were obtained:
[1] = target: T1, human Tumour Necrosis Factor alpha (hTNFα) (human, UniProt P01375 77-233); assay: kinetics on hTNFα, Table 1 (instrument for Ka/Kd not stated)
T1 construct: Coated on ELISA plates, amine-coupled to the BIAcore chip, or biotinylated on Octet streptavidin sensors; soluble in the L929 assay; also called rhTNFα; hTNF-alpha

[2] = target: T1, human Tumour Necrosis Factor alpha …; assay: BLI, Octet RED96, biotinylated hTNF-α on streptavidin sensors (BIAcore cell is n/a)
[3] = target: T1, human Tumour Necrosis Factor alpha …; assay: cell-based or functional assay
[4] = target: T1, human Tumour Necrosis Factor alpha …; assay: BLI, Octet RED96, biotinylated hTNF-α on streptavidin sensors
[5] = target: T1, human Tumour Necrosis Factor alpha …; assay: SPR, BIAcore T200, TNFα amine-coupled to chip, 1:1 Langmuir fit
Mouse TNFα = target: T2, Mouse TNFα (mouse, UniProt P06804 80-235); assay: cell-based or functional assay
T2 sequence (looked up): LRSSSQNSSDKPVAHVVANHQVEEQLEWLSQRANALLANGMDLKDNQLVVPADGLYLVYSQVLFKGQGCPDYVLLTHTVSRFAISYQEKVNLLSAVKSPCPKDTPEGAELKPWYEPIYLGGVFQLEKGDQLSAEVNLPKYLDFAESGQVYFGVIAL

[6] = target: T1, human Tumour Necrosis Factor alpha …; assay: statement in the legend of the Caco-2 permeability assay (FIG. 8)
[7] = target: T1, human Tumour Necrosis Factor alpha …; assay: binding profile of humanised D1 versions on hTNF-alpha (FIG. 16)
human ICOS ligand = target: T3, human ICOS ligand (human, UniProt O75144 19-258, limits assumed); assay: binding ELISA on human and mouse ICOS ligands (FIG. 11)
T3 construct: also called hICOSL
T3 sequence (looked up): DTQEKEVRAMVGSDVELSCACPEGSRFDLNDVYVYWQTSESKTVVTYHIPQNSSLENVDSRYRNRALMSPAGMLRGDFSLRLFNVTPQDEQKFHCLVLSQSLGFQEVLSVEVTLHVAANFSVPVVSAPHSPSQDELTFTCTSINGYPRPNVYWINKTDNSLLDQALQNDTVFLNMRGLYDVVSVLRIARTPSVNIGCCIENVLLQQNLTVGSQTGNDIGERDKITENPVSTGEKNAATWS

mouse ICOS ligand = target: T4, mouse ICOS ligand (mouse, UniProt Q9JHJ8 47-279, limits assumed); assay: as above
T4 construct: the construct is not described; also called mICOSL
T4 sequence (looked up): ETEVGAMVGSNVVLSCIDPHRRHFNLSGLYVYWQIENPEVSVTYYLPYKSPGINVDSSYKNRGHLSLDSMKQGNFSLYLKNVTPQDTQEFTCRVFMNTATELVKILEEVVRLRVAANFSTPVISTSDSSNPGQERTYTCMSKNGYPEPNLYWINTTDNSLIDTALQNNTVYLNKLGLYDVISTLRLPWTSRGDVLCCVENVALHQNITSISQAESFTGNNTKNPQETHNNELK

T1 sequence (P01375 77-233 limits assumed): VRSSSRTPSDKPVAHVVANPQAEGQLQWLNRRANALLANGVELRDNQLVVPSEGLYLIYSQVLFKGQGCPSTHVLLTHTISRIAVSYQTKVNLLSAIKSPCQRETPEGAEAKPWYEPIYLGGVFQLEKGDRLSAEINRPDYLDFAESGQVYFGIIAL

B1: TNF VNAR DIMER D1-B4 (VNAR)
chain: ARVDQTPQTITKETGESLPINCVLRDSHCATSSTYWYRKKSGSTNEESISKGGRYVETVNSGSKSFSLRINDLTVEDSGTYRCASECQYGLAEYDVYGGGTVVTVNGGGGSGGGGGSGAHSARVDQTPQTITKETGESLTINCVLRDSNCALSSMYWYRKKSGSTNEESISKGGRYVETVNSGSKSFSLRINDLTVEDSGTYRCKVYIPCIDELVYMISGGTSGPIHDVYGGGTVVTVNAAAHHHHHHGAAEQKLISEEDL
- koff [1]: 0.0005 s⁻¹
- kon [1]: 270000 M⁻¹ s⁻¹
- Kd [2]: 15.9 nM
- ND50 (nM), neutralisation of hTNF-alpha cytotoxicity in L929 cells [3]: 8 nM

B2: TNF VNAR D1-BA11-D1 (VNAR)
chain: ARVDQTPQTITKETGESLTINCVLRDSHCATSSTYWYRKKSGSTNEESISKGGRYVETVNSGSKSFSLRINDLTVEDSGTYRCASECQYGLAEYDVYGGGTVVTVNGGGGSGGGGSGGGGSGGGGSGAHSTRVDQSPSSLSASVGDRVTITCVLTDTSYPLYSTYWYRKNPGSSNKEQISISGRYSESVNKGTKSFTLTISSLQPEDSATYYCRAMSTNIWTGDGAGTKVEIKGGGGSGGGGSGGGGSGGGGSGAHSARVDQTPQTITKETGESLTINCVLRDSHCATSSTYWYRKKSGSTNEESISKGGRYVETVNSGSKSFSLRINDLTVEDSGTYRCASECQYGLAEYDVYGGGTVVTVNHHHHHHHEQKLISEEDL
notes: Tandem VNAR trimer with His and myc tags
- Kd [4]: 0.1 nM
- Kd [5]: 4 nM
- koff [1]: 0.0002 s⁻¹
- kon [1]: 1.9e+06 M⁻¹ s⁻¹
- ND50 (nM), neutralisation of hTNF-alpha cytotoxicity in L929 cells [3]: 0.38 nM

B3: TNF S17-Quad-X™ with (Gly4Ser)5 (Fc fusion)
chain: ASVNQTPRTATKETGESLTINCVLTDTHAKVFTTSWFRKNPGTTDWERMSIGGRYVESVNKGAKSFSLRIKDLTVADSATYICRAGGYLSQPRVYWDVYGAGTVLTVNGGGGSGGGGRTEPRGPTIKPCPPCKCPAPNLLGGPSVFIFPPKIKDVLMISLSPIVTCVVVDVSEDDPDVQISWFVNNVEVHTAQTQTHREDYNSTLRVVSALPIQHQDWMSGKEFKCKVNNKDLPAPIERTISKPKGSVRAPQVYVLPPPEEEMTKKQVTLTCMVTDFMPEDIYVEWTNNGKTELNYKNTEPVLDSDGSYFMYSKLRVEKKNWVERNSYSCSVVHEGLHNHHTTKSFSRTPGKGGGGSGGGGSGGGGSGGGGSGAHSASVNQTPRTATKETGESLTINCVLTDTHAKVFTTSWFRKNPGTTDWERMSIGGRYVESVNKGAKSFSLRIKDLTVADSATYICRAGGYLSQPRVYWDVYGAGTVLTVN
- fold improvement of in vitro neutralizing potency over S17-Fc (Mouse TNFα): ~40 fold

B4: TNF VNAR DIMER D1-D1 (VNAR)
chain: ARVDQTPQTITKETGESLTINCVLRDSHCATSSTYWYRKKSGSTNEESISKGGRYVETVNSGSKSFSLRINDLTVEDSGTYRCASECQYGLAEYDVYGGGTVVTVNGGGGSGGGGGSGAHSARVDQTPQTITKETGESLTINCVLRDSHCATSSTYWYRKKSGSTNEESISKGGRYVETVNSGSKSFSLRINDLTVEDSGTYRCASECQYGLAEYDVYGGGTVVTVNAAAHHHHHHGAAESKLISEEDL
- koff [1]: 0.000316 s⁻¹
- kon [1]: 500000 M⁻¹ s⁻¹
- Kd [2]: 0.6 nM
- ND50 (nM), neutralisation of hTNF-alpha cytotoxicity in L929 cells [3]: 7 nM

B5: TNF VNAR D1-BA11-B4 (VNAR)
chain: ARVDQTPQTITKETGESLTINCVLRDSHCATSSTYWYRKKSGSTNEESISKGGRYVETVNSGSKSFSLRINDLTVEDSGTYRCASECQYGLAEYDVYGGGTVVTVNGGGGSGGGGSGGGGSGGGGSGAHSTRVDQSPSSLSASVGDRVTITCVLTDTSYPLYSTYWYRKNPGSSNKEQISISGRYSESVNKGTKSFTLTISSLQPEDSATYYCRAMSTNIWTGDGAGTKVEIKGGGGSGGGGSGGGGSGGGGSGAHSARVDQTPQTITKETGESLTINCVLRDSNCALSSMYWYRKKSGSTNEESISKGGRYVETVNSGSKSFSLRINDLTVEDSGTYRCKVYIPCIDELVYMISGGTSGPIHDVYGGGTVVTVNHHHHHHHEQKLISEEDL
notes: as for B2
- koff [1]: 0.006 s⁻¹
- kon [1]: 1.7e+06 M⁻¹ s⁻¹
- Kd [2]: 0.33 nM

B6: TNF VNAR B4 (VNAR)
VNAR: ARVDQTPQTITKETGESLTINCVLRDSNCALSSMYWYRKKSGSTNEESISKGGRYVETVNSGSKSFSLRINDLTVEDSGTYRCKVYIPCIDELVYMISGGTSGPIHDVYGGGTVVTVNA
notes: Nurse shark VNAR single domain, expressed with His and myc tags
- binding result [6]: binds

B7: SoloMER™ VNAR D1-v2 (VNAR)
VNAR: ARVDQSPSSLSASVGDRVTITCVLRDSHCATSSTYWYRKKSGSTNEESISKGGRYVETVNSGSKSFTLTISSLQPEDFATYYCASECQYGLAEYDVYGGGTKVEIKH
notes: Humanised D1 VNAR with His tag; also called soloMER D1-v2
- binding result [7]: binds

B8: SoloMER™ VNAR D1-v3 (VNAR)
VNAR: ARVDQSPSSLSASVGDRVTITCVLRDSHCATSSTYWYQQKPGKTNEESISKGGRYVETVNSGSKSFTLTISSLQPEDFATYYCASECQYGLAEYDVYGGGTKVEIKH
notes: Humanised D1 VNAR with His tag
- binding result [7]: binds

B9: SoloMER™ VNAR D1-v4 (VNAR)
VNAR: ARVDQSPSSLSASVGDRVTITCVLRDSHCATSSTYWYRKKPGSTNEESISKGGRFSGSGSSGSKSFTLTISSLQPEDFATYYCASECQYGLAEYDVFGQGTKVEIKH
notes: as for B8
- binding result [7]: binds

B10: ICOS VNAR CC3-Fc-2D4 (Fc fusion)
chain: TRVDQTPRTATKETGESLTINCVLTDTEYGLFSTSWFRKNPGTTDWERMSIGGRYVESVNKGAKSFSLRIKDLTVADSATYYCKALGWWPPAFPHWYDGAGTVLTVNGGGGSGGGGRTEPKSSDKTHTCPPCPAPEAAGAPSVFLFPPKPKDTLMISRTPEVTCVVVDVSHEDPEVKFNWYVDGVEVHNAKTKPREEQYNSTYRVVSVLTVLHQDWLNGKEYKCKVSNKALPAPIEKTISKAKGQPREPQVYTLPPSREEMTKNQVSLTCLVKGFYPSDIAVEWESNGQPENNYKTTPPVLDSDGSFFLYSKLTVDKSRWQQGNVFSCSVMHEALHNHYTQKSLSLSPGKTAAAATAAAATAAAATAAAATRVDQTPRTATKETGESLTINCVLTDTDYGLFSTSWFRKNPGTTDWERMSIGGRYVESVNKGAKSFSLRIKDLTVADSATYYCKAFTWPWEWPDRWFRPWYDGAGTVLTVN
notes: Human IgG1 Fc; also called anti-ICOSL Quad-X™ construct
- binding result (human ICOS ligand): binds
- binding result (mouse ICOS ligand): binds

B11: ICOS VNAR CC3-Fc-CC3 (Fc fusion)
chain: TRVDQTPRTATKETGESLTINCVLTDTEYGLFSTSWFRKNPGTTDWERMSIGGRYVESVNKGAKSFSLRIKDLTVADSATYYCKALGWWPPAFPHWYDGAGTVLTVNGGGGSGGGGRTEPKSSDKTHTCPPCPAPEAAGAPSVFLFPPKPKDTLMISRTPEVTCVVVDVSHEDPEVKFNWYVDGVEVHNAKTKPREEQYNSTYRVVSVLTVLHQDWLNGKEYKCKVSNKALPAPIEKTISKAKGQPREPQVYTLPPSREEMTKNQVSLTCLVKGFYPSDIAVEWESNGQPENNYKTTPPVLDSDGSFFLYSKLTVDKSRWQQGNVFSCSVMHEALHNHYTQKSLSLSPGKTAAAATAAAATAAAATAAAATRVDQTPRTATKETGESLTINCVLTDTEYGLFSTSWFRKNPGTTDWERMSIGGRYVESVNKGAKSFSLRIKDLTVADSATYYCKALGWWPPAFPHWYDGAGTVLTVN
notes: as for B10
- binding result (mouse ICOS ligand): binds
